Here are results for 22 molecules from patent US20230183322A1 (PEKING UNIVERSITY, published 2023).

Where a chain is given by its changes, count along the chain named.

Test [1] addresses biotin-labeled SARS-COV-2 RBD domain (SARS-CoV-2, UniProt P0DTC2 319-541). Put plainly: SPR, Biacore T200, biotin-RBD on SA chip, antibody as analyte.
In test [2] the target is S protein of the novel coronavirus SARS-CoV-2 (SARS-CoV-2, UniProt P0DTC2 14-1273). As to the kind of experiment: cell-based or functional assay.

B1: ABU-377 (antibody, V domains shown)
VH: QVQLVESGGGLVQPGGSLRLSCAASGLIVSSNYMSWVRQAPGEGLEWVSVIYSGGSTYYADSVKGRFTISRDTSKNTLYLQMNSLRAEDTAVYYCARARIYTYGPDYWGQGTLVTVSS
VL: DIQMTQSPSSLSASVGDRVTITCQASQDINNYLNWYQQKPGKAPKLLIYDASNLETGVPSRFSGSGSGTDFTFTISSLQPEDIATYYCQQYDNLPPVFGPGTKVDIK
B1: the Kd (as a rule, the free concentration of one partner at which half of the binding sites on the other are occupied at equilibrium, for simple one-to-one binding) in test [1] is below 10 nM. Further, the “IC50 for neutralizing SARS-CoV-2 pseudovirus (Huh-7 cells, luciferase)” value (“IC50” below) in test [2] is below 0.5 µg/mL.

B2: ABU-381 (antibody, V domains shown)
VH: EVQLVESGGGLVQPGGSLRLSCAVSGFIVSRNYMTWVRQAPGKGLEWVSLIYSGGSTFYTNSVKGRFTISRDNSKNTLYLQMDSLRAEDTAVYYCARGPYPRFDYWGQGTLVTVSS
VL: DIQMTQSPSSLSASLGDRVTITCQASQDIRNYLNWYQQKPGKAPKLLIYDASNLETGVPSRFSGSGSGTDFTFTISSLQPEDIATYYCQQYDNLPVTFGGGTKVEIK
As for B2, in test [1], the dissociation constant (Kd) was below 1 nM. Besides, in test [2], the “IC50” value was below 0.1 µg/mL.

B3: ABU-372 (antibody, V domains shown)
VH: EVQLVESGGGLVQPGGSLRLSCAASGVTVSRNYMSWVRQAPGKGLEWVSVIYSGGSTDYADSVKGRFTISRHNSKNTLYLQMNSLRVEDTAVYYCARDGYGMDVWGQGTTVTVSS
VL: DIQLTQSPSFLSASVGDRVTITCRASQGISSYLAWYQQKPGKAPNLLIYAASTLQSGVPSRFSGSGSGTEFTLTISSLQPEDFATYYCQQLNSYPPAFGPGTKVDIK
B3 had a Kd in test [1] below 20 nM. For the same molecule, the “IC50” value in test [2] was below 0.5 µg/mL.

B4: ABU-386 (antibody, V domains shown)
VH: EVQLVESGGGLVQPGGSLRLSCAASGVTVSSNYMSWVRQAPGKGLEWVSAVYSGGSTYYADSVKGRFTISRHNSKNTLYLQMKSLRPEDTAIYYCARLINHYYDSSGDGGAFDIWGQGTMVTVSS
VL: QSALTQPASVSGSPGQSITISCTGTSSDVGSYNLVSWYQQRPGKAPKLILYEVTKRPSGVSNRFSGSKSGNTASLAISGLQAEDEADYYCCSYAGSSTWVFGGGTKLTVL
In turn, B4 came in with a dissociation constant (Kd) in test [1] below 10 nM. Also, in test [2], the “IC50” value is below 0.1 µg/mL.

B5: ABU-354 (antibody, V domains shown)
VH: EVQLVESGGGLIQPGGSLRLSCAASGLIVSSNYMSWVRQAPGKGLEWVSVLYAGGSTDYAGSVKGRFTISRDNSKNTLYLQMNSLRAEDTAVYYCARDAAVYGIDVWGQGTTVTVSS
VL: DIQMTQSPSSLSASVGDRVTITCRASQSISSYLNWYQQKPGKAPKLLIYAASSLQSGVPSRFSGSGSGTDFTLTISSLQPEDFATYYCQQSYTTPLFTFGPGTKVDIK
With B5, in test [1], the dissociation constant (Kd) is below 1 nM. The “IC50” value in test [2] is below 0.1 µg/mL.

B6: ABU-356 (antibody, V domains shown)
VH: B5 VH with L27F, I28T, S35N, L51I, A53S, D58F, G61D, A99R, A100V, I104M
VL: DIQMTQSPSSLSASVGDRVTITCQASQDIINYLNWYQQKPGKAPKLLIYGASNLETGVPSRFSGGGSGTDFTFTISSLQPEDIATYYCHQYDNLPPTFGQGTRLEIK
For B6, in test [1], the Kd was below 10 nM. The “IC50” value in test [2] is below 0.1 µg/mL.

B7: ABU-368 (antibody, V domains shown)
VH: B5 VH with L27F, I28T, L51I, A53S, D58F, G61D, A99L, A100G, V101A, I104M
VL: B3 VL with N45K, Y94D, P95L, P96Y, A97T, P100Q, V104L, D105E
For the molecule B7, in test [1], the Kd is below 20 nM. For the same molecule, in test [2], the “IC50” value was below 0.5 µg/mL.

B8: ABU-369 (antibody, V domains shown)
VH: B5 VH with I28T, L51I, A53S, D58F, G61D, A99L, A100Y, V101Y, I104M
VL: AIQLTQSPSSLSASVGDRVTITCRASQGISSYLAWYQQKPGKAPKLLIFAASTLQSGVPSRFSGSGSGTDFTLTISSLQPEDFATYYCQQLDSYPLFGGGTKVEIK
B8: the Kd in test [1] is below 10 nM. Further, the “IC50” value in test [2] was below 0.1 µg/mL.

B9: ABU-361 (antibody, V domains shown)
VH: B5 VH with I28T, L51I, A53S, D58Y, G61D, K75T, A99L, A100D, V101Y, I104M
VL: DIQLTQSPSSLSASVGDRVTITCRASQGISSYLAWYQQKPGKAPNLLIYAASTLQSGVPSRFSGSGSGTDFTLTISSLQPEDFATYYCQHLNSYPPITFGQGTRLEIK
As for B9, the dissociation constant Kd in test [1] is below 20 nM. For the same molecule, in test [2], the “IC50” value was below 0.5 µg/mL.

B10: ABU-360 (antibody, V domains shown)
VH: EVQLVESGGGLVQPGGSLRLSCAASEFIVSRNYMSWVRQAPGKGLEWVSVIYSGGSTFYADSVKGRFTISRDNSKNTLYLQMNSLRAEDTGVYYCARDRGLVSDYWGQGTLVTVSS
VL: B6 VL with I30N, N31K, Y49F, G50D, N53H, G64A, G65S, P96R
As for B10, in test [1], the Kd was below 1 nM. Besides, in test [2], the “IC50” value is below 0.1 µg/mL.

B11: ABU-376 (antibody, V domains shown)
VH: B3 VH with V27L, R31S, E46N, D58Y, H72D, Q81E, R86K, V87P, D98L, G99P
VL: B6 VL with I30R, Y49H, G50D, S63I, G65S, H89Q, P96I
On to B11, for which the Kd in test [1] was below 10 nM. For the same molecule, in test [2], the “IC50” value is below 0.1 µg/mL.

B12: ABU-379 (antibody, V domains shown)
VH: EVQLVESGGGLVQPGGSLRLSCAASGFIVSSNYMSWVRQAPGKGLEWVSVIYSGGSTYYADSVKGRFTISRDNSKNTLYLRMNSLRAEDTAVYYCARAPYCSSRSCETWGQGTLVTVSS
VL: B6 VL with I30R, K45N, G50D, G65S, S76N, H89Q, P96I
For B12, the Kd in test [1] is below 10 nM. The “IC50” value in test [2] is below 0.5 µg/mL.

B13: ABU-380 (antibody, V domains shown)
VH: EVQLVESGGGLVQPGGSLRLSCAASGFTVSSNYMSWVRQAPGKGLEWVSLIYPGGSTYYADSVEGRFTISRDNSKNTLYLQMNSLRAEDTAVYYCAREIRVITPVEVWGQGTLVTVSS
VL: B6 VL with I30N, N31K, Q38L, K45N, G50D, G65S, P96R, R103K, L104V
For B13, the Kd in test [1] is below 1 nM. Also, the “IC50” value in test [2] is below 0.1 µg/mL.

B14: ABU-365 (antibody, V domains shown)
VH: EVQLVESGGGLIQPGGSLRLSCAASGVTVSSNYMSWVRQAPGKGLEWVSLIYSGGSTYYADSVKGRFTISRDNSKNTLYLQMNSLRAEDTAVYYCARPIVGARSGMDVWGQGTTVTVSS
VL: B6 VL with I30N, G50D, G65S, T74I, H89Q, Y91H, P96V, Q100G, R103K, L104V
B14: the Kd in test [1] was below 10 nM. Moreover, the “IC50” value in test [2] was below 0.1 µg/mL.

B15: ABU-375 (antibody, V domains shown)
VH: B3 VH with V27L, R31S, D58F, H72D, L85V, V87A, D98L, G99P
VL: DIQMTQSPSSLSASVGDRVTITCQASQDVSKYLNWYQQKPGKAPKLLIHDASNLQTGVPSRFSGGGSGTDFTFTISSLQPEDIATYYCQQYDNLPVTFGGGTKVEIK
For B15, the dissociation constant (Kd) in test [1] was below 10 nM. In test [2], the “IC50” value was below 0.1 µg/mL.

B16: ABU-355 (antibody, V domains shown)
VH: EVQLVESGGGLVQPGGSLRLSCAASGITVRSNYMSWVRQAPGKGLEWVSVIYSGGSTFYADSVKGRFTISRDNSKNTLYLQMNSLRAEDTAVYYCARDLISRGMDVWGQGTTVTVSS
VL: B9 VL with N45K, H90Q, S93G, P96H, I97S, T98A, Q101P, R104K, L105V, E106D
Turning to B16, in test [1], the dissociation constant (Kd) is below 1 nM. Besides, the “IC50” value in test [2] is below 0.1 µg/mL.

B17: ABU-373 (antibody, V domains shown)
VH: EVQLVESGGGLIQPGGSLRLSCAASGITVSSNYMSWVRQAPGKGLEWVSVIYSGGSTYYADSVKGRFTISRDNSKNTLYLQMNSLRAEDTAVYYCARGGAYYYGMDVWGQGTTVTVSS
VL: DIQLTQSPSFLSASVGDRVTITCRASQGISSYLAWYQQKPGKAPKLLIYAASTLQSGVPSRFSGSGSGTEFTLTISSLQPEDFATYYCQQLNTYPPFGFGPGTKVDIK
Molecule B17 had an equilibrium dissociation constant (Kd) in test [1] below 10 nM. In addition, the “IC50” value in test [2] is below 0.5 µg/mL.

B18: ABU-367 (antibody, V domains shown)
VH: B16 VH with V12I, T28I, R30S, S35T, N83S, I100G, S101P, R102Y
VL: B3 VL with Y32D, Y94D, P95L, P96Y, A97T, P100Q, V104L, D105E
Turning to B18, in test [1], the Kd was below 1 nM. Moreover, in test [2], the “IC50” value is below 0.1 µg/mL.

B19: ABU-359 (antibody, V domains shown)
VH: B16 VH with I27F, T28I, R30S, S35T, D72H, Y79F, L99A, I100Q, S101N, R102Y
VL: DIQMTQSPSSLSASVGDRVTITCRASQSISSYLNWYQQKPGKAPKLLIFAASSLQTGAPSRFSGSGSGTDFTLTISSLQPEDFATYYCQQSYSTPPYTFGQGTKLEIK
As to B19, the Kd in test [1] was below 10 nM. In addition, the “IC50” value in test [2] is below 0.1 µg/mL.

B20: ABU-358 (antibody, V domains shown)
VH: EVQLVESGGGLIQPGGSLRLSCAASGLTVSSNYMNWVRQAPGKGLEWVSVIYSGGSTYYADSVKGRFTISRDNSKNMVYLQMNSLRAEDTAVYYCARDLVVYGMDVWGQGTTVIVSS
VL: B17 VL with F10S, E70D, F83V, T93S, Y94N, F97I, G98T
B20 came in with a dissociation constant Kd in test [1] below 10 nM. Further, the “IC50” value in test [2] is below 0.1 µg/mL.

B21: ABU-362 (antibody, V domains shown)
VH: B16 VH with I27F, R30S, S31R, S56T, F58H, D72H, I100V, S101V, R102Y
VL: B3 VL with N45K, R61S, P96L, A97T, P100G, D105E
Consider B21, for which the equilibrium dissociation constant (Kd) in test [1] is below 20 nM. For the same molecule, in test [2], the “IC50” value is below 0.5 µg/mL.

B22: ABU-371 (antibody, V domains shown)
VH: B16 VH with T28I, R30S, F58Y, I100D, S101Y, R102Y
VL: B17 VL with T93S, G98T
B22 returned a Kd in test [1] below 20 nM. Besides, in test [2], the “IC50” value was below 1 µg/mL.
